Source: the RNAGym collection of RNA variant scans (doi:10.7554/elife.80360)

B1: Hammerhead Ribozyme (parent)
chain: ACCGGAUGUGCUUUCCGGUCUGAUGAGUCCGUGAGGACGAAACAG

Variants of: B1
Test: self-cleavage, relative activity (ratio to wild type); higher = more cleavage; co-transcriptional

Going from U7C A26C to U13G A23G, the self-cleavage falls from 0.373 to 0.368.

First: G10U A23C
Second: U7A A26C
The self-cleavage of the first is higher: 0.47 for the first, 0.311 for the second.

Compared with U7A A26G, U14G A42G is higher in self-cleavage: 0.221 for the first, 0.381 for the second.

Going from A6U U7C to G4U G36A, the self-cleavage falls from 0.356 to 0.321.

First: U9C C30G
Second: U14C A44G
The self-cleavage of the first is lower: 0.955 for the first, 1.24 for the second.

First: G8C U28A
Second: C2G C30A
The self-cleavage of the first is higher: 1.22 for the first, 0.374 for the second.

Compared with U14C C15G, U32G A42U is lower in self-cleavage: 0.794 for the first, 0.375 for the second.

First: U9A C15G
Second: U13G A40U
The self-cleavage of the first is higher: 0.758 for the first, 0.303 for the second.

First: G17C G33A
Second: A1G G25C
The self-cleavage of the first is higher: 0.564 for the first, 0.319 for the second.

Compared with A6C C43A, U12G G22U is higher in self-cleavage: 0.287 for the first, 0.37 for the second.

Going from C3U G5C to A41C A44C, the self-cleavage rises from 0.351 to 0.436.

First: G10C G31C
Second: C3G A23U
The self-cleavage of the first is higher: 0.704 for the first, 0.242 for the second.

Compared with G10U C15A, G10U C15U is higher in self-cleavage: 0.817 for the first, 1.07 for the second.

Going from C2A G18C to C2A G18U, the self-cleavage rises from 0.922 to 1.21.

Compared with C38G A41G, C29G U32G is higher in self-cleavage: 0.404 for the first, 0.553 for the second.

First: U12G G17U
Second: U9C G39U
The self-cleavage of the first is higher: 0.943 for the first, 0.264 for the second.

Compared with G5A U12A, C15G U19G is lower in self-cleavage: 1.22 for the first, 0.382 for the second.

Compared with A1G A23G, U14G G17U is higher in self-cleavage: 0.413 for the first, 0.485 for the second.

Going from G17A G25A to U32G C38A, the self-cleavage rises from 0.353 to 0.674.

Going from A1C G36U to C15U G39U, the self-cleavage falls from 0.401 to 0.37.

Compared with U21C G45C, G4C C30A is higher in self-cleavage: 0.416 for the first, 0.594 for the second.

Compared with G5A U24G, U32G G39C is lower in self-cleavage: 0.965 for the first, 0.497 for the second.

First: C11U G35U
Second: C11U C20G
The self-cleavage of the first is higher: 0.846 for the first, 0.327 for the second.

First: G8C U32G
Second: A40C A42G
The self-cleavage of the first is higher: 1.23 for the first, 0.314 for the second.

First: C29G G45C
Second: G39C G45U
The self-cleavage of the first is higher: 0.371 for the first, 0.328 for the second.

Going from G5A G10U to U19A C30A, the self-cleavage falls from 1.73 to 0.294.

Compared with G10U G33A, C3U U32G is lower in self-cleavage: 1.13 for the first, 0.452 for the second.

Going from A37U A40C to G22U G33A, the self-cleavage falls from 0.472 to 0.307.

First: C2A G45C
Second: G10A C38U
The self-cleavage of the first is lower: 0.42 for the first, 1.33 for the second.

First: A6U C11U
Second: G5U A6C
The self-cleavage of the first is higher: 0.607 for the first, 0.336 for the second.

Going from G25U G31C to A23C A42G, the self-cleavage rises from 0.298 to 0.392.

Going from U12C C43U to C3U U19G, the self-cleavage falls from 0.486 to 0.38.

Going from U7C G10U to A41U C43U, the self-cleavage falls from 1.12 to 0.362.

Going from C30G C38A to U13A G25U, the self-cleavage falls from 0.402 to 0.277.

First: U13G G35U
Second: G4C A40C
The self-cleavage of the first is higher: 0.873 for the first, 0.352 for the second.

Compared with U32C G36U, U13G G31U is higher in self-cleavage: 0.73 for the first, 0.82 for the second.

Compared with G8A G35U, G33U G36C is higher in self-cleavage: 0.588 for the first, 0.623 for the second.

Going from A34G A40G to A34G A40C, the self-cleavage rises from 0.345 to 0.44.

Compared with C16U A26G, C3G A41C is lower in self-cleavage: 0.358 for the first, 0.299 for the second.

Going from C2U A40C to C2U A40U, the self-cleavage falls from 0.51 to 0.346.

First: U7G A42U
Second: A1U A34G
The self-cleavage of the first is lower: 0.326 for the first, 0.596 for the second.

For G8A C20G, the self-cleavage was 0.381.
